B1: 6A6Q (antibody, human IgG1, lambda, L234A L235A, V domains shown)
VH: EVQLVESGGGVVQPGGSLRLSCAASGFTFDDYAMHWVRQAPGKGLEWVSLISGDGGSTYYADSVKGRFTISRDNSKNSLYLQMNSLKASDTAMYYCARPRWGRYSSSWPFDYWGQGTLVTVSS
VL: QSALTQPASVSGSPGQSITISCTGTSSDVGTYNYVSWYQQHPGKAPKLMIYDVTDRPSGISNRFSGSKSGNTASLTISGLQAEDEGNYYCSSYTSQRSWVFGGGTKLTVLG
notes: Full IgG made in CHO cells, lambda constant region; Variant of 6A6 whose light chain glycosylation site NRS was mutated to QRS; also called TEM8-6A6Q
B2: 3B3 (antibody, human IgG1, kappa, L234A L235A, V domains shown)
VH: EVQLVQSGGGLVKPGGSLRLSCAASGFTFSSYSMNWVRQAPGKGLEWVSSISSSSSYIYYADSVKGRFTISRDNAKNSLYLQMNSLRAEDTAVYYCARVRPPYGMDVWGQGTLVTVSS
VL: NIQMTQSPSSVSASVGDTVTISCRASQGISNWLGWYQQRPGEAPKLLIYAASHLQSGVPSRFSGSGSGTDFVLTITSLQPEDFATYYCQQSNSFPLAFGGGTKLEIKR
notes: Full IgG made in CHO cells, kappa constant region; also called TEM8-3B3
B3: 11B7 (antibody, human IgG1, lambda, L234A L235A, V domains shown)
VH: QVQLVQSGGGVVQPGRPLRLSCAASGFNLGSYAMSWVRQAPGKGLEWVSAISGSGGSTYYADSVKGRFTISRDNSKNTLYLQMNSLRAEDTAVYYCAKILGPGNLNYYYYYGMDVWGQGTTVTVSS
VL: SSELTQDPAVSVALGQTVRITCQGDSLRNSYASWYQQKPGQAPVLVIYGNNNRPSGIPDRVSGSRSGNTASLTITGAQAEDEADYYCNSRDSSGNHVVFGGGTELTVLG
notes: Full IgG made in CHO cells, lambda constant region; also called TEM8-11B7
B4: 3A3 (antibody, human IgG1, kappa, L234A L235A, V domains shown)
VH: QVQLVQSGPEVKKPGAPVKISCKTSGYIFDDYGITWVRQAPGQGLEWLGWISTYNGKTSFAQKVQGRLTMTTDISTNTASMELRGLRSDDTALYYCARVFSRYIPFYFDSWGQGTLVTVSS
VL: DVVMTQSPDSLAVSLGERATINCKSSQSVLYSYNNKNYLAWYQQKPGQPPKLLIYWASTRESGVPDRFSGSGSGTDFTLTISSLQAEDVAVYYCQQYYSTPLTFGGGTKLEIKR
notes: Full IgG made in CHO cells: variable regions joined to the IgG heavy chain constant region and the kappa constant region; also called TEM8-3A3
B5: 7E3 (antibody, human IgG1, lambda, L234A L235A, V domains shown)
VH: QVQLVESGGGLVNPGGSLRLSCAVSGFTSSGFSINWVRQAPGKGLEWVSSISGIGDSIFYADSVKGRFTISRDNAKNLVFLQMNSVKAEDTAVYYCVRDKWGWGTYSLFDYWGQGTLVTVSS
VL: QAVLTQPPSASGTPGQRVTISCSGSSSNIASNVVSWYQQLPGTAPKVLIYSNNRRPSGVPDRFSGSKSGASASLAISGLQSDDETHYYCAAWDDSLKGPVFGGGTQLTVLG
notes: Full IgG made in CHO cells, lambda constant region; also called TEM8-7E3

Legend:
[1] = biological target: human TEM8 on CHO-hTEM8 cells (human, UniProt Q9H6X2 33-564); assay: FACS on CHO-hTEM8 cells
Chain of human TEM8 on CHO-hTEM8 cells (Q9H6X2 33-564): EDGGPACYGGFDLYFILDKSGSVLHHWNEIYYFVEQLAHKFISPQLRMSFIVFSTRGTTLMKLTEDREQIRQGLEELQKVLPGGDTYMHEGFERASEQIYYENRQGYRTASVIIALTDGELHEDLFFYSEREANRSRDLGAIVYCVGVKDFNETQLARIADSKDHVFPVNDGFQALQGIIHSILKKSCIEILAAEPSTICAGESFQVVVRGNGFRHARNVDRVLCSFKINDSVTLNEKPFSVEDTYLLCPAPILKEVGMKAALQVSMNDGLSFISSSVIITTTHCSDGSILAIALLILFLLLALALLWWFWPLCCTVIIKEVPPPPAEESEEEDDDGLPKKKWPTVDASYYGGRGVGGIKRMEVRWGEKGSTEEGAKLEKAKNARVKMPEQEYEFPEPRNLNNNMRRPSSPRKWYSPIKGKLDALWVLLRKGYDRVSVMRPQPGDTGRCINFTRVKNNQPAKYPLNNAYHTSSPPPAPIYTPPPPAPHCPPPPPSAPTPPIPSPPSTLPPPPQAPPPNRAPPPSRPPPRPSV

[2] = biological target: T1, mouse TEM8 on CHO-mTEM8 cells (mouse, UniProt Q9CZ52 31-562); assay: FACS on CHO-mTEM8 cells
T1 construct: also called murine TEM8
T1 sequence (Q9CZ52 31-562): as the sequence (Q9H6X2 33-564) above, with K40R, R104S, S241A, I297V, A327V, N458S, A468T, T471P, P493A counted along it

Row | Binder | EC50 [1] | EC50 [2]
1 | B1 | 0.63 nM | 1.16 nM
2 | B2 | 1.51 nM | 2.14 nM
3 | B3 | 0.85 nM | 1.21 nM
4 | B4 | 0.71 nM | 1.48 nM
5 | B5 | 0.75 nM | 1.41 nM

— EP4722246A1 (Inxmed (Nanjing) Co., Ltd., dated 2024)
